From patent US20120177571A1, “PANCREATIC ENDOCRINE CELL INDICATING AGENT AND UTILIZATION OF SAME” (RIKEN, priority 2009, published 2012)

Tested on: pancreatic beta cells
Conditions: in vivo, 70 mg/kg
Experimental: 70 mg of Streptozotocin (STZ), which is selectively toxic to the pancreatic beta cells, was intraperitoneally administered to a rat per kilogram of the weight of the rat. Thus, a diabetic rat whose pancreatic beta cells were damaged was prepared. Next, ^68Ga-DOTA-octreotide (PET probe) was intravenously administered to the model rat in accordance with the method in Example 1. Next, in accordance with the method in Example 1, the abdomen of the model rat was scanned with the use of a PET and image reconstruction was performed. […] Further, as in Example 1, organs etc. were removed from the model rat after the scan, and radioactivity in each of the organs etc. was quantified.

Compound: C[C@@H](O)[C@@H]1NC(=O)[C@H](CCCCN)NC(=O)[C@@H](Cc2c[nH]c3ccccc23)NC(=O)[C@H](Cc2ccccc2)NC(=O)[C@@H](NC(=O)[C@@H](Cc2ccccc2)NC(=O)CN2CCN(CC(=O)O)CCN(CC(=O)O)CCN(CC(=O)O)CC2)CSSC[C@@H](C(=O)N[C@H](CO)[C@@H](C)O)NC1=O [^68Ga-DOTA-octreotide, metal not drawn]
- accumulation of the PET probe in kidney and liver (PET image), diabetic model rat: observed
